± gives the standard deviation.
Assay: protein stability index of a GFP-peptide fusion (GPS, HEK-293T) (PSI 1-6); higher = more stable
Details: c terminus: a fixed tail appended
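Further: 24-mer peptide tiles fused after GFP, lentivirally expressed, FACS-sorted into six equal bins by GFP/DsRed ratio, decoded by Illumina sequencing, PSI is the read-weighted mean bin number.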

Sequence THLLMGLAGGKLILSLEGGYNLRA [HDAC6] has a protein stability index (treatment: DMSO) of 3.08 ± 0.91 and a protein stability index (treatment: MLN4924 1 uM, 8 h) of 2.91 ± 1.
TIIASNAEEAEILHSACGLSKDHQ [TOR1AIP2] gave a protein stability index (treatment: DMSO) of 4.48 ± 0.14 and a protein stability index (treatment: MLN4924 1 uM, 8 h) of 4.54 ± 0.24.
For TIILQQLLPLRTKVAKLLGYSTHA [NLN], the protein stability index (treatment: DMSO) was 2.33 ± 0.26 and the protein stability index (treatment: MLN4924 1 uM, 8 h) was 1.92 ± 0.39.
For TIKVSYARPSSASIRDANLYVSGL [ELAVL3], the protein stability index (treatment: DMSO) was 2.37 ± 0.076 and the protein stability index (treatment: MLN4924 1 uM, 8 h) was 2.23 ± 0.3.
Sequence TINIKCHVHDPHGQVIWGMSWAKL [FBXO39] has a protein stability index (treatment: DMSO) of 2.84 ± 0.5 and a protein stability index (treatment: MLN4924 1 uM, 8 h) of 2.67 ± 0.46.
TKFDRDGNRILDEKEQEKMRQDLE [PKD2L1] showed a protein stability index (treatment: DMSO) of 5.12 ± 0.34 and a protein stability index (treatment: MLN4924 1 uM, 8 h) of 5.36 ± 0.35.
Work on TKQNFFSQTPILQALQHVQASCDE [INTS3] yielded a protein stability index (treatment: DMSO) of 3.95 ± 0.12 and a protein stability index (treatment: MLN4924 1 uM, 8 h) of 4.16 ± 0.23.
In the case of TLGELKQNLSRSWHDVQVSSAYVK [TPD52L2], the protein stability index (treatment: DMSO) is reported as 2.96 ± 0.23 and the protein stability index (treatment: MLN4924 1 uM, 8 h) is reported as 3.26 ± 0.27.
Work on TLGKVLKVIVVMRSLFIDRTIVKG [MED27] yielded a protein stability index (treatment: DMSO) of 3.01 ± 0.66 and a protein stability index (treatment: MLN4924 1 uM, 8 h) of 2.74 ± 0.97.
Work on TLHAVEKLQVRLATKTEPKKLEKY [ELOA2] yielded a protein stability index (treatment: DMSO) of 3.7 ± 0.31 and a protein stability index (treatment: MLN4924 1 uM, 8 h) of 3.73 ± 0.41.
TLKRGYFQKSLVLISKLPYIHFFH [DENND6A] showed a protein stability index (treatment: DMSO) of 3.11 ± 0.73 and a protein stability index (treatment: MLN4924 1 uM, 8 h) of 2.7 ± 0.3.
TLNIKETDSKELSMAKEVIAKELS [ZBED1] showed a protein stability index (treatment: DMSO) of 3.87 ± 0.086 and a protein stability index (treatment: MLN4924 1 uM, 8 h) of 4.13 ± 0.12.
Sequence TLTSVQLLDCFGIPVLMALSWFIL [SLC35F2] has a protein stability index (treatment: DMSO) of 3.03 ± 0.35 and a protein stability index (treatment: MLN4924 1 uM, 8 h) of 2.65 ± 0.58.
Work on TNRVKECLAKGTFSDVTFILDDGT [RHOBTB2] yielded a protein stability index (treatment: DMSO) of 3.52 ± 0.16 and a protein stability index (treatment: MLN4924 1 uM, 8 h) of 3.63 ± 0.18.
For TNTTSTQMTNIGVYVSNMTDKLVT [IQUB], the protein stability index (treatment: DMSO) was 2.78 ± 0.3 and the protein stability index (treatment: MLN4924 1 uM, 8 h) was 2.8 ± 0.34.
Work on TPIEVLCENFPEMATYLRYVRRLD [CSNK1G3] yielded a protein stability index (treatment: DMSO) of 2.39 ± 0.3 and a protein stability index (treatment: MLN4924 1 uM, 8 h) of 2.6 ± 0.44.
For TPLHVAAANKAVKCAEVIIPLLSS [ANKRD44], the protein stability index (treatment: DMSO) was 2.44 ± 0.26 and the protein stability index (treatment: MLN4924 1 uM, 8 h) was 2.54 ± 0.22.
In the case of TSAEIELPDVEPAAFLALLRFLYS [BTBD1], the protein stability index (treatment: DMSO) is reported as 2.42 ± 0.25 and the protein stability index (treatment: MLN4924 1 uM, 8 h) is reported as 2.34 ± 0.2.
For TSAVLKAGRQSVSGRKNSTSKDLV [C6orf223], the protein stability index (treatment: DMSO) was 4.26 ± 0.074 and the protein stability index (treatment: MLN4924 1 uM, 8 h) was 4.38 ± 0.22.
For TSCIVIILIIISVIVQIKQPRKKY [NETO1], the protein stability index (treatment: DMSO) was 3.26 ± 0.17 and the protein stability index (treatment: MLN4924 1 uM, 8 h) was 3 ± 0.16.
Work on TSKDLVTLGASSLREERGHPLHPR [C6orf223] yielded a protein stability index (treatment: DMSO) of 4.26 ± 0.063 and a protein stability index (treatment: MLN4924 1 uM, 8 h) of 4.33 ± 0.18.
TSPECASPQFEGPLSPPPINYNGI [NEUROD6] showed a protein stability index (treatment: DMSO) of 4.07 ± 0.15 and a protein stability index (treatment: MLN4924 1 uM, 8 h) of 3.91 ± 0.3.
Sequence TVDSMIPAYATTRIRSQIGNTESE [GDAP1] has a protein stability index (treatment: DMSO) of 4.86 ± 0.16 and a protein stability index (treatment: MLN4924 1 uM, 8 h) of 4.99 ± 0.076.
With TVVGLFNVRDRDSGRNGEVSLDIS [PCDHGC5] the protein stability index (treatment: DMSO) was 2.83 ± 0.37 and the protein stability index (treatment: MLN4924 1 uM, 8 h) was 3.13 ± 0.19.
In the case of TVVGVPSGKVSSSSSSLGNKLQTL [ZC2HC1A], the protein stability index (treatment: DMSO) is reported as 3.56 ± 0.34 and the protein stability index (treatment: MLN4924 1 uM, 8 h) is reported as 3.73 ± 0.29.
With TWALYNLVSVYPDKYCPLLIKEGG [ZER1] the protein stability index (treatment: DMSO) was 2.62 ± 0.99 and the protein stability index (treatment: MLN4924 1 uM, 8 h) was 2.26 ± 0.34.
Work on TWAMRQRGTHAVVGVATADAPLHS [SPSB1] yielded a protein stability index (treatment: DMSO) of 2.72 ± 0.34 and a protein stability index (treatment: MLN4924 1 uM, 8 h) of 2.87 ± 0.23.
In the case of VAAAASRGADDAMESSKPGPVQVV [ATL3], the protein stability index (treatment: DMSO) is reported as 5.03 ± 0.26 and the protein stability index (treatment: MLN4924 1 uM, 8 h) is reported as 4.9 ± 0.25.
Sequence VALLNKTNVKFLAITTDCLQILAY [CTNNB1] has a protein stability index (treatment: DMSO) of 2.86 ± 0.51 and a protein stability index (treatment: MLN4924 1 uM, 8 h) of 2.91 ± 0.42.
In the case of VALLRAHAGEHLLLGATKRSMVFK [HNF4A], the protein stability index (treatment: DMSO) is reported as 2.27 ± 0.45 and the protein stability index (treatment: MLN4924 1 uM, 8 h) is reported as 2.48 ± 0.096.
VASKMKETIPLTAEKLCIYTDNSI [CCND1] gave a protein stability index (treatment: DMSO) of 3.15 ± 0.42 and a protein stability index (treatment: MLN4924 1 uM, 8 h) of 3.33 ± 0.084.
Sequence VAWHPVRPIIASISSGVVSIWAQN [RBBP5] has a protein stability index (treatment: DMSO) of 2.48 ± 0.48 and a protein stability index (treatment: MLN4924 1 uM, 8 h) of 2.5 ± 0.39.
VCGGAQRPGHLPGLLLGSHGLLGS [CDC25B] gave a protein stability index (treatment: DMSO) of 1.9 ± 0.96 and a protein stability index (treatment: MLN4924 1 uM, 8 h) of 3.24 ± 1.6.
Work on VCVDRVLYLFGGHHSRGNTNKFYM [KLHDC2] yielded a protein stability index (treatment: DMSO) of 2.37 ± 1.4 and a protein stability index (treatment: MLN4924 1 uM, 8 h) of 2.86 ± 1.1.
Work on VCVEHHTFFRLLLPEAPPKKFLTL [EPB41L3] yielded a protein stability index (treatment: MLN4924 1 uM, 8 h) of 2.85 ± 0.42.
With VEEFGVVSNTRLIAAATSVLKTRF [CCNC] the protein stability index (treatment: DMSO) was 2.88 ± 0.61 and the protein stability index (treatment: MLN4924 1 uM, 8 h) was 2.26 ± 0.68.
VEPKHCFTSPDYQQQCHEMAERLE [SDE2] gave a protein stability index (treatment: DMSO) of 4.85 ± 0.21 and a protein stability index (treatment: MLN4924 1 uM, 8 h) of 4.83 ± 0.18.
With VEQPQPQFISRFLEGQSGVTIKHV [NEK8] the protein stability index (treatment: DMSO) was 3.27 ± 0.18 and the protein stability index (treatment: MLN4924 1 uM, 8 h) was 3.29 ± 0.17.
Sequence VGAAETTLTELRRTVQSLEIDLDS [KRT18] has a protein stability index (treatment: DMSO) of 4.51 ± 0.19 and a protein stability index (treatment: MLN4924 1 uM, 8 h) of 4.86 ± 0.24.
In the case of VGGVLRGLNHSLSYDVALHRTRLQ [SCARA5], the protein stability index (treatment: DMSO) is reported as 2.59 ± 0.18 and the protein stability index (treatment: MLN4924 1 uM, 8 h) is reported as 2.84 ± 0.32.
For VGMNFLHCMAPPLLHLDLKPANIL [RIPK4], the protein stability index (treatment: DMSO) was 2.73 ± 0.57 and the protein stability index (treatment: MLN4924 1 uM, 8 h) was 2.14 ± 0.63.
VGPWLGQLQELLHHCDDHLSLYQL [RSAD1] gave a protein stability index (treatment: DMSO) of 2.25 ± 0.45 and a protein stability index (treatment: MLN4924 1 uM, 8 h) of 2.6 ± 0.55.
Sequence VHEHDGHLYLGSFRSPFLCRLSLQ [APMAP] has a protein stability index (treatment: DMSO) of 2.73 ± 0.51 and a protein stability index (treatment: MLN4924 1 uM, 8 h) of 2.33 ± 0.41.
VHRQLSHLYAEPQKSPWCEARSLE [ESR2] gave a protein stability index (treatment: DMSO) of 2.92 ± 0.28 and a protein stability index (treatment: MLN4924 1 uM, 8 h) of 3.2 ± 0.24.
VHYLHSKRIAHFDLKPENIMLLDK [DAPK3] gave a protein stability index (treatment: DMSO) of 2.33 ± 0.34 and a protein stability index (treatment: MLN4924 1 uM, 8 h) of 2.17 ± 0.28.

Source: the supplement of paper PMC10567573
